Laboratory results reported in US20250277054A1.

Columns and labels:
[1] = target: human PSMA on human prostate cancer cells (LNCaP, C4-2, 22Rv1) (human) (UniProt Q04609); assay: flow cytometry on 22Rv1 cells (PSMA low)
[2] = target: human PSMA on human prostate cancer cells (LNCaP, C4-2, 22Rv1) (human) (UniProt Q04609); assay: flow cytometry on C4-2 cells (PSMA high)
[3] = target: human PSMA on human prostate cancer cells (LNCaP, C4-2, 22Rv1) (human) (UniProt Q04609); assay: flow cytometry on LNCaP cells (PSMA high)
[4] = target: Mouse PSMA.ECD.His (Acro) (mouse) (UniProt O35409); assay: ELISA, coated mouse PSMA protein (His tag)
Sequence of Mouse PSMA.ECD.His (Acro) (mouse) (O35409 45-752): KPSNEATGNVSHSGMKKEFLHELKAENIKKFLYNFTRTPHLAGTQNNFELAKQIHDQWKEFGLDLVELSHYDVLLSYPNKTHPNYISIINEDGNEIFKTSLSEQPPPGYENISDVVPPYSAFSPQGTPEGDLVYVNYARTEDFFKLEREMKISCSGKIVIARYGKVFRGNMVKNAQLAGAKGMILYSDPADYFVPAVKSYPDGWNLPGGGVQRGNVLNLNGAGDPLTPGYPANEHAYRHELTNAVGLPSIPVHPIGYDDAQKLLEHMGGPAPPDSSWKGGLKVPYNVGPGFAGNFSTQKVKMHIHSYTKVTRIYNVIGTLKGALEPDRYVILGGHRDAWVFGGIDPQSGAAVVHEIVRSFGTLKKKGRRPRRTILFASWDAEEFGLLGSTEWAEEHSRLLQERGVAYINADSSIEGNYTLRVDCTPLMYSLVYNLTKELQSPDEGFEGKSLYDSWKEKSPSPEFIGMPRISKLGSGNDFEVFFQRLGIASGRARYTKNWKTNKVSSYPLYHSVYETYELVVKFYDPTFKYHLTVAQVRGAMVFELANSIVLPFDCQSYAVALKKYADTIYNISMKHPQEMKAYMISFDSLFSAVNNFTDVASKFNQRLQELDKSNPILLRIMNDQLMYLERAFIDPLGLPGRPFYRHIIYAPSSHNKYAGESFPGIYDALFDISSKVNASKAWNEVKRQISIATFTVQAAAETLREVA

[5] = target: Human PSMA.ECD.His (Acro) (human) (UniProt Q04609); assay: ELISA, coated human PSMA protein (His tag)
Sequence of Human PSMA.ECD.His (Acro) (human) (Q04609 44-750): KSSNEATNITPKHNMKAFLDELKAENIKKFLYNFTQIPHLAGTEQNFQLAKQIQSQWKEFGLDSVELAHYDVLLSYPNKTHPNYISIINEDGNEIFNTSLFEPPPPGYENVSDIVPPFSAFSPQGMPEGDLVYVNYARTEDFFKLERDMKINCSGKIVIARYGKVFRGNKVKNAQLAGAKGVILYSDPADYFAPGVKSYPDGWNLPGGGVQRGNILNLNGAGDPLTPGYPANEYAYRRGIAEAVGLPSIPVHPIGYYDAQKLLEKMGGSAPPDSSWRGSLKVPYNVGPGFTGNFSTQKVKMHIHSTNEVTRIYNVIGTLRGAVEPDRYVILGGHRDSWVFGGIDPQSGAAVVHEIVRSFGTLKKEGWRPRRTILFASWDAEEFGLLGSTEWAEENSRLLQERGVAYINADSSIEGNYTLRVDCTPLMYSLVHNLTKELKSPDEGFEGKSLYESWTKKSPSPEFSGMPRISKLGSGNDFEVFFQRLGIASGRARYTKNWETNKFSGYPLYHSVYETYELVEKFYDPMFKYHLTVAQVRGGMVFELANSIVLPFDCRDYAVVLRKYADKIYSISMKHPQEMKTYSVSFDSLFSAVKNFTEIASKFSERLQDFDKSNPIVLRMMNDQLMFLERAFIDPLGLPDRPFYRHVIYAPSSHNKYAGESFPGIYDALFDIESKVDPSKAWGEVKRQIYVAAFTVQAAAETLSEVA

[6] = target: full-length cynomolgus PSMA on Flp-in CHO cells (WBP3xx042-FlpinCHO.cPro1.B7) (cynomolgus); assay: flow cytometry on FlpInCHO-cyno PSMA cells
[7] = target: Cyno PSMA.ECD.His (Acro) (cynomolgus); assay: ELISA, coated cynomolgus PSMA protein (His tag)
[8] = target: Biotinylated Human PSMA/FOLH1 Protein, His, Avitag (human) (UniProt Q04609); assay: SPR (Biacore 8K), biotinylated human PSMA captured on streptavidin chip, antibody injected, single-cycle, 1:1 model
Sequence of Biotinylated Human PSMA/FOLH1 Protein, His, Avitag (human) (Q04609 44-750 limits assumed): as the sequence (Q04609 44-750) above

[9] = target: human PSMA on human prostate cancer cells (LNCaP, C4-2, 22Rv1) (human) (UniProt Q04609); assay: flow cytometry on LNCaP cells
[10] = target: Human PSMA.ECD.His (Acro) (human) (UniProt Q04609); assay: ELISA, human PSMA ECD captured by anti-His antibody
[11] = target: full-length cynomolgus PSMA on Flp-in CHO cells (WBP3xx042-FlpinCHO.cPro1.B7) (cynomolgus); assay: flow cytometry on cynomolgus PSMA-expressing CHO cells
[12] = target: Cyno PSMA.ECD.His (Acro) (cynomolgus); assay: ELISA, cynomolgus PSMA ECD captured by anti-His antibody
[13] = target: Cyno PSMA.ECD.His (Acro) (cynomolgus); assay: SPR (Biacore 8K), antibody captured by anti-human IgG Fc, PSMA injected, 1:1 model
[14] = target: Human PSMA.ECD.His (Acro) (human) (UniProt Q04609); assay: as above

Sequence of human PSMA on human prostate cancer cells (LNCaP, C4-2, 22Rv1) (human) (Q04609 whole entry, the tested form may be a part): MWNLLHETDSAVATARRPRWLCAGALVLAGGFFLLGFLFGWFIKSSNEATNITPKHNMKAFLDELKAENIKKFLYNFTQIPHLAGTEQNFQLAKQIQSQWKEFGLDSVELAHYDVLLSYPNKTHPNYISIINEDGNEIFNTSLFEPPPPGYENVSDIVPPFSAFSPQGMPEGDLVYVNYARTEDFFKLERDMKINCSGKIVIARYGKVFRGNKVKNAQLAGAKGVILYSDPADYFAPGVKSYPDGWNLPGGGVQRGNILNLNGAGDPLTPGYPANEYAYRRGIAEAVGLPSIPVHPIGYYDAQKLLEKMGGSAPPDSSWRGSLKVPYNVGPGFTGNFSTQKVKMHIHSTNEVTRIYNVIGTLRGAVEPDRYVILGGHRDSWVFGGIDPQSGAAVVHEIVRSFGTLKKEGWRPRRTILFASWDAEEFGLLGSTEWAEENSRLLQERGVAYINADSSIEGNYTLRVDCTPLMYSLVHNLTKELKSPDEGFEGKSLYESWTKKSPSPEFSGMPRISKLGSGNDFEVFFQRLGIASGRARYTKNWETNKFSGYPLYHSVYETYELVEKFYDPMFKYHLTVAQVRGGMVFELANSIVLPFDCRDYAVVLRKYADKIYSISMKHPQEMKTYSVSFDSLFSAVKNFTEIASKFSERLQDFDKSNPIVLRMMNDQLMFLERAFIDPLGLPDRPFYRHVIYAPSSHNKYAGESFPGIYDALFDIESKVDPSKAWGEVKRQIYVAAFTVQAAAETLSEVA

isotype hIgG4 control (antibody)
Max MFI [1]: 372 MFI | Max MFI [2]: 138 MFI | Max MFI [3]: 181 MFI | Max OD450-540 [4]: 0.09 OD450-540 | Max OD450-540 [5]: 0.04 OD450-540 | Max MFI [6]: 19.9 MFI | Max OD450-540 [7]: 0.04 OD450-540

AMG 340/TNB-585 (BMK1) (bispecific antibody)
EC50 [1]: 174 nM | Max MFI [1]: 5280 MFI | EC50 [2]: 35.3 nM | Max MFI [2]: 34700 MFI | EC50 [3]: 55.7 nM | Max MFI [3]: 16300 MFI | Max OD450-540 [4]: 0.05 OD450-540 | Max MFI [6]: 2870 MFI | Kd [8]: 32.3 nM | koff [8]: 0.00378 s⁻¹ | kon [8]: 117000 M⁻¹ s⁻¹

AMG 160 (BMK2) (bispecific antibody)
EC50 [1]: 46.1 nM | Max MFI [1]: 5910 MFI | EC50 [2]: 34.4 nM | Max MFI [2]: 34200 MFI | EC50 [3]: 30.8 nM | Max MFI [3]: 19100 MFI | Max OD450-540 [4]: 0.09 OD450-540 | EC50 [5]: 0.22 nM | Max OD450-540 [5]: 3.52 OD450-540 | EC50 [6]: 55.8 nM | Max MFI [6]: 62900 MFI | EC50 [7]: 0.48 nM | Max OD450-540 [7]: 3.57 OD450-540 | Kd [8]: 36.7 nM

human IgG isotype antibody (negative control)
Max MFI [9]: 47.7 MFI | EC50 [4]: > 100 nM | Max OD450 [4]: 0.093 OD450 | Max OD450 [10]: 0.263 OD450 | EC50 [11]: > 100 nM | Max MFI [11]: 34.8 MFI | EC50 [12]: > 10 nM | Max OD450 [12]: 0.258 OD450

J591 antibody (W3XX042-BMK1)
EC50 [9]: 0.48 nM | Max MFI [9]: 3590 MFI | EC50 [10]: 0.077 nM | Max OD450 [10]: 2.34 OD450 | EC50 [11]: 3.63 nM | Max MFI [11]: 93300 MFI | EC50 [12]: 0.011 nM | Max OD450 [12]: 2.79 OD450 | Kd [13]: 1.82 nM | koff [13]: 0.000192 s⁻¹ | Kd [14]: 1.27 nM
